Test [1] concerns the target cynomolgus LAG3 expressed on the cell surface (293T or CHO cells) (cynomolgus monkey). Briefly: flow cytometry, 293T cells expressing cyno LAG3. For orientation: A flow cytometer gives signals particle by particle.
Test [2] concerns the target cynomolgus LAG3-Fc (accession # NC 022282.1) (cynomolgus monkey). Briefly: SPR (Biacore), antibody captured by anti-Flag, cyno LAG3-Fc as analyte, 25 C. On the technique in general: SPR reads the build-up and loss of mass on a sensor chip optically.

This passage reports Kd and koff results from patent US20200079850A1.

cynomolgus LAG3-Fc (accession # NC 022282.1) (cynomolgus monkey), sequence (P18627 other isoform, or with tags, fused parts or gaps limits assumed, form in doubt): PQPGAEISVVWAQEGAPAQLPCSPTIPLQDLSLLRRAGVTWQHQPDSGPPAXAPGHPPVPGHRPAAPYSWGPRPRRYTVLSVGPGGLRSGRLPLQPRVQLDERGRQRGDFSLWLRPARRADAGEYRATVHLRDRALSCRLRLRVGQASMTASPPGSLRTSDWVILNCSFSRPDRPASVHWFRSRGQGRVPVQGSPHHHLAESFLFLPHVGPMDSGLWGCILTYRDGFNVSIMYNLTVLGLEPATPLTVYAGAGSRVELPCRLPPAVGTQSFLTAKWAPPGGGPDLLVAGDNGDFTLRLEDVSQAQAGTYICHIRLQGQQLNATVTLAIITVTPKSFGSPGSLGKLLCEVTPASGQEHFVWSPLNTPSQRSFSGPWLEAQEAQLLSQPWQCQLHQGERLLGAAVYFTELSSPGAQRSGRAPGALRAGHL
cynomolgus LAG3 expressed on the cell surface (293T or CHO cells) (cynomolgus monkey), sequence (P18627 other isoform, or with tags, fused parts or gaps limits assumed, form in doubt): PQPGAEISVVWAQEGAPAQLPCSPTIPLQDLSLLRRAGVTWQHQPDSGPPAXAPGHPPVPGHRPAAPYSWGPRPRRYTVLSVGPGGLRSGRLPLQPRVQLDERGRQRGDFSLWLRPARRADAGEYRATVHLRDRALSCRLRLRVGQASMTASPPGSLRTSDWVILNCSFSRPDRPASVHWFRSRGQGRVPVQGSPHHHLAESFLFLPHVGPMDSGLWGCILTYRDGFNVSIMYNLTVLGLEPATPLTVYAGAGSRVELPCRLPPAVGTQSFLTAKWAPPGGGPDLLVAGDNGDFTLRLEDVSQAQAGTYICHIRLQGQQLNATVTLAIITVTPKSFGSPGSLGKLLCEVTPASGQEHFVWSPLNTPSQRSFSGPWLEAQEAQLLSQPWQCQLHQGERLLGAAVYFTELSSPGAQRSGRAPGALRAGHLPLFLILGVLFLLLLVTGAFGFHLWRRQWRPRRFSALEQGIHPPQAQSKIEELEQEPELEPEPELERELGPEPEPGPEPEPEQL

B1: 421.61.4.5G11 (antibody, V domains shown)
VH: EVQLQQSGAELVRSGASVKLSCTASGFNIKDYYMHWVKQRPEQGLEWIAWIDPENGDTEYAPKFQGRATLTADTSSNTAYLHLSSLTSEDTAVYYCNAPDALDYWGQGTSVTVSS
VL: not shown
The term Kd denotes a measure of binding affinity in units of concentration. Broadly, the koff is the first-order rate constant of dissociation. Read a low koff as a long-lived complex. In test [1], B1 yielded a dissociation constant (Kd) of 4.5 nM. For the same molecule, in test [2], the equilibrium dissociation constant (Kd) came to 4.51 nM and the koff amounted to 0.000641 s⁻¹.
